Columns and labels:
[1] = biological target: T1, Reb1 (Saccharomyces cerevisiae) (UniProt P21538); assay: EMSA; conditions: 11.87 mM HEPES-KOH pH 7.9, 3 mM Tris-Cl, 96.67 mM NaCl, 3.33 mM KCl, 5.3 mM MgCl2, 0.13 mM Mg acetate, 1.33 uM ZnCl2, 0.05% NP-40, 10% glycerol, 100 ug/mL BSA …
T1 sequence: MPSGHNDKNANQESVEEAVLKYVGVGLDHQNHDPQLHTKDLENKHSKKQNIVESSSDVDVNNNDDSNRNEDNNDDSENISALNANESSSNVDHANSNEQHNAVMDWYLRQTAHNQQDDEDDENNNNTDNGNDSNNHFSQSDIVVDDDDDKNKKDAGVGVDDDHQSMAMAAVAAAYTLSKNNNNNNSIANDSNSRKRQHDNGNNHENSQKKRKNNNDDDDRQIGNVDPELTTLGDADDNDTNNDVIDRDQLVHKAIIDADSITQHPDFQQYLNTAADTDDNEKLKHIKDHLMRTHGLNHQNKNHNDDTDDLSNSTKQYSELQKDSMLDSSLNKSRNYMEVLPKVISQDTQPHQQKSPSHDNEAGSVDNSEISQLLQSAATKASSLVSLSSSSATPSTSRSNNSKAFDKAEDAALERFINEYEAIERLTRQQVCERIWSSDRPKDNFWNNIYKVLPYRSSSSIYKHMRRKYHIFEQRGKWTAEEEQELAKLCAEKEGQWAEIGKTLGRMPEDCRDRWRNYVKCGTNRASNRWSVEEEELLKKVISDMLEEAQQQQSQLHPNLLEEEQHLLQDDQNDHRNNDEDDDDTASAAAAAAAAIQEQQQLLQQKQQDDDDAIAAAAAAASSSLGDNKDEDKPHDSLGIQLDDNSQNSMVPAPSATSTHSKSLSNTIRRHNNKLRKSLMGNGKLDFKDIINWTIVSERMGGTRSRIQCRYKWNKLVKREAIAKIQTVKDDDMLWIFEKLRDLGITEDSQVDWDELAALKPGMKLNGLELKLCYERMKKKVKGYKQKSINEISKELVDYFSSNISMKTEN

[2] = biological target: T2, Abf1 (Saccharomyces cerevisiae) (UniProt P14164); assay: EMSA; conditions: 11.87 mM HEPES-KOH pH 7.9, 3 mM Tris-Cl, 96.67 mM NaCl, 3.33 mM KCl, 5.3 mM MgCl2, 0.13 mM Mg acetate, 1.33 uM ZnCl2, 0.05% NP-40, 10% glycerol, 100 ug/mL BSA …
T2 sequence: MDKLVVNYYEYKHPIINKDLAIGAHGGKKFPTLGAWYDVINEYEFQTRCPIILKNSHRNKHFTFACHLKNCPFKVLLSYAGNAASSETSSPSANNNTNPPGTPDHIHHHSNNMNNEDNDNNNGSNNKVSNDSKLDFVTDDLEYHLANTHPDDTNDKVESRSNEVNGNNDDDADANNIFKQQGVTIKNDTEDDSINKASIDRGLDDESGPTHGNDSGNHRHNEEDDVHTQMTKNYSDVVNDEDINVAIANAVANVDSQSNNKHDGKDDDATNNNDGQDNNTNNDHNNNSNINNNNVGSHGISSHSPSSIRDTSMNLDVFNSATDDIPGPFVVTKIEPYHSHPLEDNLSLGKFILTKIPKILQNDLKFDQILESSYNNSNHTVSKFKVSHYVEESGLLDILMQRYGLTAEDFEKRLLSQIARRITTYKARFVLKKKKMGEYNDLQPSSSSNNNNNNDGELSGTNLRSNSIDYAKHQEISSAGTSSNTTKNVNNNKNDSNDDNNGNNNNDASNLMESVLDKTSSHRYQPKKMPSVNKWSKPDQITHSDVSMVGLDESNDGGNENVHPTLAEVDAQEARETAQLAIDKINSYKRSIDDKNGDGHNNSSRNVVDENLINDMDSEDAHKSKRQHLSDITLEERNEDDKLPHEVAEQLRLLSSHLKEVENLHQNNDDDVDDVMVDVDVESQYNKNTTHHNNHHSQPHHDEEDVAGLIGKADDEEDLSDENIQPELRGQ

## ACAGGATGTATATATCTGACACGTGCCTGGAGACTAGGGAGTAATCCCCTTGGCGGTTAAAACGCGGGGGACAGCGCGTACGTGCGTTTAAGCGGTGCTAGAGCTGTCTACGACCAATTGAGCGGCCTCGGCACCGGGATTCTCCAGGGCGGCCGGCCGGGTAACGCATCACCATGGTGATGACCGCGGACCTGCAGGCATGCAAGCTTGAGTATTCTATAGTGTCA (double strand) [NC-80/G-GC nucleosome]
[1]
  Kd: 1.07 nM

## ACAGGATGTATATATCTGACACGTGCCTGGAGACTAGGGAGTAATCCCCTTGGCGGTTAAAACGCGGGGGACAGCGCGTACGTGCGTTTAAGCGGTGCTAGAGCTGTCTACGACCAATTGAGCGGCCTCGGCACCGGGATTCTCCAGGGCGGCCGCTTATCGTATAAAGTGATAGGGTGATGACCGCGGACCTGCAGGCATGCAAGCTTGAGTATTCTATAGTGTCA (double strand) [NC-80/A3G nucleosome]
[2]
  Kd: 2.22 nM

## ACAGGATGTATATATCTGACACGTGCCTGGAGACTAGGGAGTAATCCCCTTGGCGGTTAAAACGCGGGGGACAGCGCGTACGTGCGTTTAAGCGGTGCTAGAGCTGTCTACGACCAATTGAGCGGCCTCGGCACCGGGATTCTCCAGGGCGGCCGGACGGGTAACGCATCACCATGGTGATGACCGCGGACCTGCAGGCATGCAAGCTTGAGTATTCTATAGTGTCA (double strand) [NC-80/G-TC nucleosome]
[1]
  Kd: 1.11 nM

## ACAGGATGTATATATCTGACACGTGCCTGGAGACTAGGGAGTAATCCCCTTGGCGGTTAAAACGCGGGGGACAGCGCGTACGTGCGTTTAAGCGGTGCTAGAGCTGTCTACGACCAATTGAGCGGCCTCGGCACCGGGATTCTCCAGGGCGGCCGCTTATCGTATTGCATGATAGGGTGATGACCGCGGACCTGCAGGCATGCAAGCTTGAGTATTCTATAGTGTCA (double strand) [NC-80/T-G nucleosome]
[2]
  Kd: 2.49 nM

## ACAGGATGTATATATCTGACACGTGCCTGGAGACTAGGGAGTAATCCCCTTGGCGGTTAAAACGCGGGGGACAGCGCGTACGTGCGTTTAAGCGGTGCTAGAGCTGTCTACGACCAATTGAGCGGCCTCGGCACCGGGATTCTCCAGGGCGGCCGCCCGGGTAACGCATCACCATGGTGATGACCGCGGACCTGCAGGCATGCAAGCTTGAGTATTCTATAGTGTCA (double strand) [NC-80/G-GG nucleosome]
[1]
  Kd: 1.06 nM

## ACAGGATGTATATATCTGACACGTGCCTGGAGACTAGGGAGTAATCCCCTTGGCGGTTAAAACGCGGGGGACAGCGCGTACGTGCGTTTAAGCGGTGCTAGAGCTGTCTACGACCAATTGAGCGGCCTCGGCACCGGGATTCTCCAGGGCGGCCGCTCGGGTAAAGCATCACCATGGTGATGACCGCGGACCTGCAGGCATGCAAGCTTGAGTATTCTATAGTGTCA (double strand) [NC-80/T-AG nucleosome]
[1]
  Kd: 5.94 nM

## ACAGGATGTATATATCTGACACGTGCCTGGAGACTAGGGAGTAATCCCCTTGGCGGTTAAAACGCGGGGGACAGCGCGTACGTGCGTTTAAGCGGTGCTAGAGCTGTCTACGACCAATTGAGCGGCCTCGGCACCGGGATTCTCCAGGGCGGCCGCTAATCGTATTGCATGATATGGTGATGACCGCGGACCTGCAGGCATGCAAGCTTGAGTATTCTATAGTGTCA (double strand) [NC-80/A-T nucleosome]
[2]
  Kd: 2.39 nM

## ACAGGATGTATATATCTGACACGTGCCTGGAGACTAGGGAGTAATCCCCTTGGCGGTTAAAACGCGGGGGACAGCGCGTACGTGCGTTTAAGCGGTGCTAGAGCTGTCTACGACCAATTGAGCGGCCTCGGCACCGGGATTCTCCAGGGCGGCCGCTTATCGTATTGCATGATATGGTGATGACCGCGGACCTGCAGGCATGCAAGCTTGAGTATTCTATAGTGTCA (double strand) [NC-80/T-T nucleosome]
[2]
  Kd: 2.52 nM
